Where a chain is given by its changes, count along the chain named.

In test [1] the target is cynomolgus LRP6 (cynomolgus, UniProt A0A2K5VCG3 20-1602). Put plainly: FACS on HEK293T/17 cells transiently transfected with cynomolgus LRP6 (Example 3); Fab or IgG format not stated on the sheet.
Test [2] addresses T1, LRP6-Fc (R&D Systems, catalog No: 1505-LR) (human, UniProt O75581 20-1370).
T1 construct: also called 360 KD homodimer antigen LRP6-Fc
T1 sequence (looked up): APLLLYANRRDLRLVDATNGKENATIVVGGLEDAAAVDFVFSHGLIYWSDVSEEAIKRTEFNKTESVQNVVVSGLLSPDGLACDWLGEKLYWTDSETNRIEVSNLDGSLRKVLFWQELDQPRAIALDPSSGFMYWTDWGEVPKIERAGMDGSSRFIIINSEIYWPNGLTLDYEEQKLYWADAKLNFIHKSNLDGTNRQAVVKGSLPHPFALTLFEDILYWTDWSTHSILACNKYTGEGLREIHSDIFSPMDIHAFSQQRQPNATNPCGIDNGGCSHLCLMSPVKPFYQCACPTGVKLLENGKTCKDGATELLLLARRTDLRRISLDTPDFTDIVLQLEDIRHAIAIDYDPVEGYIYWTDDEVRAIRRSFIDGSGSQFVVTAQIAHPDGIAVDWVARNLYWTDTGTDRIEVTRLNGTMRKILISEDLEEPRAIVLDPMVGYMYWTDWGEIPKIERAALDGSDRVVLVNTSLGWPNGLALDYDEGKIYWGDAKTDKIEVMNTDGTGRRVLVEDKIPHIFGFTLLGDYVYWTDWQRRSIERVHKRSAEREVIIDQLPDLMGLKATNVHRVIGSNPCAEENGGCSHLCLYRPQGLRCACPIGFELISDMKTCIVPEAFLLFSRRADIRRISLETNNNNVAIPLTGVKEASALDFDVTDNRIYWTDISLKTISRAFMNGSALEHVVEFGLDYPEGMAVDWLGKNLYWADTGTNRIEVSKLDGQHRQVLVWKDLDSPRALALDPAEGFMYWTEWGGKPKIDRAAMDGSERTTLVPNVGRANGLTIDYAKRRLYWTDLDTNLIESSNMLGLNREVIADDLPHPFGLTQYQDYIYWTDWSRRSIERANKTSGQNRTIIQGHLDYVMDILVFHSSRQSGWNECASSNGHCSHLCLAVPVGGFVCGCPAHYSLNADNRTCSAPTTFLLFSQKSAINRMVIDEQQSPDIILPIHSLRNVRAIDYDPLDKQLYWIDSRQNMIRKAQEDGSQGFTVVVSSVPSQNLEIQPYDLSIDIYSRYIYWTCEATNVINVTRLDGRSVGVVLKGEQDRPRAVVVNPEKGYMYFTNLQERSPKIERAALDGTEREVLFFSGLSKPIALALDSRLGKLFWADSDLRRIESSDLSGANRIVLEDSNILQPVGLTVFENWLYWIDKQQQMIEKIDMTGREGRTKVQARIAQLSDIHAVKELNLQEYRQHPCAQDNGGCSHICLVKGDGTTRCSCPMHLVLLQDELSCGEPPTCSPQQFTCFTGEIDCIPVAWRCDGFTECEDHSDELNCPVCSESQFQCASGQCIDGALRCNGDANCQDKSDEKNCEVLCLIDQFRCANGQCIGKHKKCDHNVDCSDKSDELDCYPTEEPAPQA
Put plainly: ELISA on plates coated with LRP6-Fc. The procedure:
Binding EC₅₀ of scFvs against LRP6 protein was measured by ELISA. Maxisorp plate was coated with LRP6-Fc (R&D Sysytems, catalog No: 1505-LR) at 3 μg/ml at 4° C. overnight. The plate was blocked with 50 μl of 2% BSA for one hour, and washed five times with the wash solution. The samples were diluted with 1% BSA accordingly. The plate was incubated at RT for 1 h, and washed for 3 times. Detection was done by adding 50 μl pentallis-HRP (Qiagen Mat. No. 1014992) at 1:2000 dilution in 1% BSA, incubated at RT for 1 h, and washed 3 times. 50 μl of substrate reagent A plus B (R&D systems) was added, then incubated for 5-20 min depending on the color. The reaction was stopped by adding 25 μl of the stop solution, followed by plate reading at 450 nm.
Affinity analysis ELISA EC₅₀ was carried out for both scFv08168 and scFv06475 wild type and variants.

Test [3] addresses human LRP6 (human, UniProt O75581 20-1613). Put plainly: cell-based or functional assay.

Sequence of cynomolgus LRP6 (A0A2K5VCG3 entry or part of it): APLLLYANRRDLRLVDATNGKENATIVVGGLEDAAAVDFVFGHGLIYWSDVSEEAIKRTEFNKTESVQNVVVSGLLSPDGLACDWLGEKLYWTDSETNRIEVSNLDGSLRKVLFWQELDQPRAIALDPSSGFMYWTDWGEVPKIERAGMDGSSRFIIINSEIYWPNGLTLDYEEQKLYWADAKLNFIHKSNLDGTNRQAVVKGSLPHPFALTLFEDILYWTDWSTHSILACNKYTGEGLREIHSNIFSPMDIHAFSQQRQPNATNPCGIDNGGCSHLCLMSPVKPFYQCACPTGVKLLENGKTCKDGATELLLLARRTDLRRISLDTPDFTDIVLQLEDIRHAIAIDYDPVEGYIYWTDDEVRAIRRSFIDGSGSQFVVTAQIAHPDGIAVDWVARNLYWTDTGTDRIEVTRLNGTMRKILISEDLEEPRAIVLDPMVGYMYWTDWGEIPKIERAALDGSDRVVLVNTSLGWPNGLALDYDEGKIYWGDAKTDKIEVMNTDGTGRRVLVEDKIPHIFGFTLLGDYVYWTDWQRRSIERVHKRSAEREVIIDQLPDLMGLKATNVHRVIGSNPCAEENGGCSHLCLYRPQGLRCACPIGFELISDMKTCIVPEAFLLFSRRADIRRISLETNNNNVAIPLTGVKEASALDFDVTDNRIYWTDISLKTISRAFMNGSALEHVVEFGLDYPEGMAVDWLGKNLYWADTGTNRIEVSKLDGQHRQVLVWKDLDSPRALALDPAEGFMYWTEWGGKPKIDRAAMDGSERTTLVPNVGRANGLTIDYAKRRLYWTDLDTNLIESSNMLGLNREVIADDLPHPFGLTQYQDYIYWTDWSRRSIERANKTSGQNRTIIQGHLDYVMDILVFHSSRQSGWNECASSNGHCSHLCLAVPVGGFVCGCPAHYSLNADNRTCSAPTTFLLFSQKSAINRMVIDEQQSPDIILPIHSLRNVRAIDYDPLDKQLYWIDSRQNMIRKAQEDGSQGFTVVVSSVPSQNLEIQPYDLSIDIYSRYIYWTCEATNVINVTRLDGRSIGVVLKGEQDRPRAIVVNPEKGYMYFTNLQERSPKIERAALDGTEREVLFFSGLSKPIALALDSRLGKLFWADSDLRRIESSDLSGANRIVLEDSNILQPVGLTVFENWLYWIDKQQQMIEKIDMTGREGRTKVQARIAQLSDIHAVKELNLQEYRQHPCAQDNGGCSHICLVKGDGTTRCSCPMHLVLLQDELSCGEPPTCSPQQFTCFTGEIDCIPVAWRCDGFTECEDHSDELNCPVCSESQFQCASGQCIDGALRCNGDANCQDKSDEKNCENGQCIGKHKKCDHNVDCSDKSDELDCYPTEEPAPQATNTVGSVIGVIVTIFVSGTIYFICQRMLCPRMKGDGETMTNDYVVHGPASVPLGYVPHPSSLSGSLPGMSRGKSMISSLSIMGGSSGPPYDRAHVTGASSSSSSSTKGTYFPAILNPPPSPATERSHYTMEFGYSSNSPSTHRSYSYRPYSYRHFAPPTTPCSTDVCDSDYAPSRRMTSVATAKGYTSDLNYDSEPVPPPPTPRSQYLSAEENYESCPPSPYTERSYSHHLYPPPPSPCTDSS

B1: MOR08545 Fab (Fab, V domains shown)
VH: QVQLVESGGGLVQPGGSLRLSCAASGFTFSVNGMHWVRQAPGKGLEWVSVIDGMGHTYYADSVKGRFTISRDNSKNTLYLQMNSLRAEDTAVYYCARYDYIKYGAFDPWGQGTLVTVSS
VL: DIELTQPPSVSVAPGQTARISCSGDNIGSKYVHWYQQKPGQAPVLVIYGDSNRPSGIPERFSGSNSGNTATLTISGTQAEDEADYYCTRTSTPISGVFGGGTKLTVLG
notes: also called Propeller 1 anti-LRP6 Fab MOR08545
Consider B1, for which the EC50 in test [1] amounted to 0.3 nM.

B2: MOR08193 Fab (Fab, V domains shown)
VH: QVQLKESGPALVKPTQTLTLTCTFSGFSLSNRGGGVGWIRQPPGKALEWLAWIDWDDDKSYSTSLKTRLTISKDTSKNQVVLTMTNMDPVDTATYYCARMHLPLVFDSWGQGTLVTVSS
VL: DIVLTQSPATLSLSPGERATLSCRASQFIGSRYLAWYQQKPGQAPRLLIYGASNRATGVPARFSGSGSGTDFTLTISSLEPEDFAVYYCQQYWSIPITFGQGTKVEIKR
notes: also called Propeller 3 anti-LRP6 Fab MOR08193
Molecule B2 had an EC50 in test [1] of 0.2 nM.

B3: MOR08473 Fab (Fab, V domains shown)
VH: QVQLVESGGGLVQPGGSLRLSCAASGFTFSSYGMSWVRQAPGKGLEWVSNISNDGHYTYYADSVKGRFTISRDNSKNTLYLQMNSLRAEDTAVYYCARFQASYLDIMDYWGQGTLVTVSS
VL: DIELTQPPSVSVAPGQSITISCSGDNIGSKYVHWYQQKPGQAPVLVIYNDSNRPSGIPERFSGSNSGNTATLTISGTQAEDEADYYCQAWGDNGTRVFGGGTKLTVLG
notes: also called Propeller 3 anti-LRP6 Fab MOR08473
On to B3, for which the midpoint of the response in test [1], the EC50, lay at 0.52 nM.

B4: MOR06706 Fab (Fab, V domains shown)
VH: QVQLVESGGGLVQPGGSLRLSCAASGFTFSDYAIHWVRQAPGKGLEWVSGISYSGSSTHYADSVKGRFTISRDNSKNTLYLQMNSLRAEDTAVYYCARGSHGNIMAKRYFDFWGQGTLVTVSS
VL: DIELTQPPSVSVAPGQTARISCSGDNIRKKYVYWYQQKPGQAPVLVIYEDSKRPSGIPERFSGSNSGNTATLTISGTQAEDEADYYCSTADSGINNGVFGGGTKLTVL
notes: also called Propeller 1 anti-LRP6 Fab MOR06706
For B4, the EC50 in test [1] is 0.46 nM.

B5: scFv08168-D2 (scFv)
chain: QVQLVESGGGLVQPGGSLRLSCAASGFTFSDYVFNWVRQAPGKGLEWVAGISWSGVNTHYADSVKGRFTISRDNSKNTLYLQMNSLRAEDTAVYYCARLGATANNIRYKFMDVWGQGTLVTVSSGGGGSGGGGSGGGGSDIELTQPPSVSVAPGQTARISCSGDSLRNKVYWYQQKPGQAPVLVIYKNNRPSGIPERFSGSNSGNTATLTISGTQAEDEADYYCQSYDGQKSLVFGGGTKLTVL
In test [2], B5 returned an EC50 of 1.68 nM.

B6: scFv08168-D4 (scFv)
chain: B5 chain with F34M, A49S, G50S
B6 showed an EC50 in test [2] of 1.47 nM.

B7: scFv08168-D5 (scFv)
chain: B5 chain with F34M, A49S, H59Y
In test [2], B7 returned an EC50 of 1.22 nM.

B8: scFv08168-D7 (scFv, V domains shown)
VH: QVQLVESGGGLVQPGGSLRLSCAASGFTFSDYVMNWVRQAPGKGLEWVSGISWSGVNTHYADSVKGRFTISRDNSKNTLYLQMNSLRAEDTAVYYCARLGATANNIRYKFMDVWGQGTLVTVSS
VL: DIELTQPPSVSVAPGQTARITCSGDSLRNKVYWYQQKPGQAPVLVIYKNNRPSGIPERFSGSNSGNTATLTISGTQAEDEADYYCQSYDGQKSLVFGGGTKLTVL
In test [2], B8 yielded an EC50 of 1.15 nM. Also, the “IC50 by STF assay for Wnt1 inhibition” value in test [3] came to 4.81 nM.

B9: scFv08168-D9 (scFv, V domains shown)
VH: B8 VH
VL: B8 VL with T21S, G61V
The molecule B9 showed an EC50 in test [2] of 1.26 nM. The “IC50 by STF assay for Wnt1 inhibition” value in test [3] turned out to be 11.1 nM.

B10: scFv08168-D8 (scFv, V domains shown)
VH: B8 VH
VL: B8 VL with T21S, V45L
The molecule B10 returned an EC50 in test [2] of 0.91 nM.

B11: MOR08168 Fab (Fab, V domains shown)
VH: B8 VH with M34I
VL: B8 VL with T21S
notes: HuCAL Fab expressed in E. coli; also called Propeller 1 anti-LRP6 Fab MOR08168
For the molecule B11, a half-maximal effect in test [1] (EC50) was put at 0.88 nM.

B12: scFv08168-D6 (scFv, V domains shown)
VH: B8 VH with V48I
VL: B8 VL with T21S
On to B12, for which the EC50 in test [2] came to 1.24 nM. Further, the “IC50 by STF assay for Wnt1 inhibition” value in test [3] amounted to 0.74 nM.

Values taken from patent publication US20130064823A1 (Novartis, published 2013).
